Results reported in PMC7898620.
Several values for one entry are separate records, joined by “and”; a condition that tells them apart may be missing. Identical values can stand only once.

How the values were obtained:
[1] = target: RbmA R219A mutant (Vibrio cholerae); experiment: SEC-SAXS; analytical Superdex 200 increase 3.2/300 column in line with SAXS, 0.075 ml/min; without MgPO4; details: scale: mol monomer per mol dimer
[2] = target: RbmA W119G mutant (Vibrio cholerae); experiment: as above; details: scale: mol monomer per mol dimer
[3] = target: Rugosity and biofilm structure modulator A (RbmA), wild type (Vibrio cholerae); experiment: AUC; sedimentation velocity, 40,000 RPM, RbmA 5 mg/ml, absorbance at 250 nm and Rayleigh interference; without MgPO4
[4] = target: Rugosity and biofilm structure modulator A (RbmA), wild type (Vibrio cholerae); experiment: SEC-MALS; ENrich SEC 70 column, 20 mM Tris pH 8.0, 200 mM NaCl, 2 mM DTT, 0.02% NaN3, 240-360 ug protein injected; without MgPO4
[5] = target: Rugosity and biofilm structure modulator A (RbmA), wild type (Vibrio cholerae); experiment: time-resolved SAXS; stopped-flow mixing, 5 mg/ml RbmA in 20 mM Tris/HCl pH 8, 100 mM NaCl with 10 mM potassium phosphate and 2.5 mM MgCl2; followed for 3 hr
[6] = target: RbmA E160A mutant; experiment: SEC-MALS; details: parent: est. 58; read off a plot
[7] = target: RbmA R219A mutant; experiment: SEC-MALS; details: parent: est. 58; read off a plot
[8] = target: RbmA W119G mutant; experiment: SEC-MALS; details: parent: est. 58; read off a plot
[9] = target: RbmA W222G mutant; experiment: SEC-MALS; details: parent: est. 58; read off a plot

RbmA R219A mutant (natural protein)
monomer:dimer molar ratio [1]: 3.5

RbmA W119G mutant (natural protein)
dimer:monomer molar ratio [2]: 2.5

Rugosity and biofilm structure modulator A (RbmA), wild type (natural protein)
stoichiometry N [3]: 4 and 2
stoichiometry N [4]: 2
stoichiometry N [5]: 6

Rugosity and biofilm structure modulator A (RbmA), wild type E160A
other: SEC-MALS average molecular weight [6]: 57 kg/mol

Rugosity and biofilm structure modulator A (RbmA), wild type R219A
other: SEC-MALS average molecular weight [7]: 36 kg/mol

Rugosity and biofilm structure modulator A (RbmA), wild type W119G
other: SEC-MALS average molecular weight [8]: 49 kg/mol

Rugosity and biofilm structure modulator A (RbmA), wild type W222G
other: SEC-MALS average molecular weight [9]: 58 kg/mol
